In US6403765B1, “Truncated Apaf-1 and methods of use thereof” (Thomas Jefferson University, priority 1998, dated 2002):
Changes are numbered by the printed parent chain. Names may count otherwise.

T1: procaspase-9 (Homo sapiens, UniProt P55211)
T1 construct: schematic representation of full length procaspase-9; made in house; host or cells: coupled in vitro transcription/translation in rabbit reticulocyte lysate (TNT Kit, Promega)
T1 sequence (P55211 1-416): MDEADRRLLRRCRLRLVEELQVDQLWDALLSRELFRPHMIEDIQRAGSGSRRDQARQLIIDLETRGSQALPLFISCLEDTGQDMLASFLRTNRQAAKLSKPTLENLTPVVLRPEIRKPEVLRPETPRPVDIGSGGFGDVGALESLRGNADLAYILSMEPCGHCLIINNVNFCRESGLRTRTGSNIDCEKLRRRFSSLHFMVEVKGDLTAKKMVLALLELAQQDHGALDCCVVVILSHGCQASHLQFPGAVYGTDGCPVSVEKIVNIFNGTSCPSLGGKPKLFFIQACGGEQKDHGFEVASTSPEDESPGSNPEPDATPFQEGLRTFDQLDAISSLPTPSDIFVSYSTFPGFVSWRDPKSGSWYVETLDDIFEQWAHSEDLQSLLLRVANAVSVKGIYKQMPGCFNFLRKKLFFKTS

B1: Apaf-WD: WD-40 repeat region of Apaf-1, residues 530-1194 (protein, UniProt O14727 530-1194, looked up, fragment)
chain: RHILDEKDCAVSENFQEFLSLNGHLLGRQPFPNIVQLGLCEPETSEVYQQAKLQAKQEVDNGMLYLEWINKKNITNLSRLVVRPHTDAVYHACFSEDGQRIASCGADKTLQVFKAETGEKLLEIKAHEDEVLCCAFSTDDRFIATCSVDKKVKIWNSMTGELVHTYDEHSEQVNCCHFTNSSHHLLLATGSSDCFLKLWDLNQKECRNTMFGHTNSVNHCRFSPDDKLLASCSADGTLKLWDATSANERKSINVKQFFLNLEDPQEDMEVIVKCCSWSADGARIMVAAKNKIFLFDIHTSGLLGEIHTGHHSTIQYCDFSPQNHLAVVALSQYCVELWNTDSRSKVADCRGHLSWVHGVMFSPDGSSFLTSSDDQTIRLWETKKVCKNSAVMLKQEVDVVFQENEVMVLAVDHIRRLQLINGRTGQIDYLTEAQVSCCCLSPHLQYIAFGDENGAIEILELVNNRIFQSRFQHKKTVWHIQFTADEKTLISSSDDAEIQVWNWQLDKCIFLRGHQETVKDFRLLKNSRLLSWSFDGTVKVWNIITGNKEKDFVCHQGTVLSCDISHDATKFSSTSADKTAKIWSFDLLLPLHELRGHNGCVRCSAFSVDSTLLATGDDNGEIRIWNVSNGELLHLCAPLSEEGAATHGGWVTDLCFSPDGKMLIS
B2: Apaf-420: truncated Apaf-1, residues 1-420, minimal conserved sequence between Apaf-1 and CED-4 (protein, UniProt O14727 1-420, looked up, fragment)
chain: MDAKARNCLLQHREALEKDIKTSYIMDHMISDGFLTISEEEKVRNEPTQQQRAAMLIKMILKKDNDSYVSFYNALLHEGYKDLAALLHDGIPVVSSSSGKDSVSGITSYVRTVLCEGGVPQRPVVFVTRKKLVNAIQQKLSKLKGEPGWVTIHGMAGCGKSVLAAEAVRDHSLLEGCFPGGVHWVSVGKQDKSGLLMKLQNLCTRLDQDESFSQRLPLNIEEAKDRLRILMLRKHPRSLLILDDVWDSWVLKAFDSQCQILLTTRDKSVTDSVMGPKYVVPVESSLGKEKGLEILSLFVNMKKADLPEQAHSIIKECKGSPLVVSLIGALLRDFPNRWEYYLKQLQNKQFKRIRKSSSYDYEALDEAMSISVEMLREDIKDYYTDLSILQKDVKVPTKVLCILWDMETEEVEDILQEFVN
B3: Apaf-350: truncated Apaf-1, residues 1-350 (protein, UniProt O14727 1-350, looked up, fragment)
chain: MDAKARNCLLQHREALEKDIKTSYIMDHMISDGFLTISEEEKVRNEPTQQQRAAMLIKMILKKDNDSYVSFYNALLHEGYKDLAALLHDGIPVVSSSSGKDSVSGITSYVRTVLCEGGVPQRPVVFVTRKKLVNAIQQKLSKLKGEPGWVTIHGMAGCGKSVLAAEAVRDHSLLEGCFPGGVHWVSVGKQDKSGLLMKLQNLCTRLDQDESFSQRLPLNIEEAKDRLRILMLRKHPRSLLILDDVWDSWVLKAFDSQCQILLTTRDKSVTDSVMGPKYVVPVESSLGKEKGLEILSLFVNMKKADLPEQAHSIIKECKGSPLVVSLIGALLRDFPNRWEYYLKQLQNKQF
B4: procaspase-9: Flag-tagged procaspase-9 C287A co-transfected with T7-tagged Bcl-xL (protein, UniProt P55211 1-416, looked up, variant C287A)
pro-form: T1 sequence (P55211 1-416) with C287A
modifications: pro-form Flag tag
notes: Flag-tagged procaspase-9 C287A co-transfected with T7-tagged Bcl-xL

Experiments:
procaspase-9 = target: T1, procaspase-9; test: In vitro caspase 9 activation assay: recombinant Apaf-1 variants incubated with in vitro translated procaspase-9; format: biochemical; settings: bacterial lysates with truncated Apaf-1 variants, FIG. 2B
Experimental: SDS sample buffer was then added to each sample, boiled and subjected to SDS-PAGE analysis followed by autoradiography. In FIG. 2A procaspase-9 was in vitro translated in the presence of ^35S-methionine. Following translation procaspase-9 was desalted by gel filtration through a biospin column (BioRad) to remove unincorporated methionine and free nucleotides. Desalted procaspase-9 was then incubated with 200 ng Ni^2+-affinity purified bacterially expressed recombinant Apaf-530 (WT or K149R mutant) in the presence or absence of cytochrome c or dATP or both for 2 h at 30° C. A mock sample containing Ni^2+-affinity purified material from bacteria transformed with an empty vector was used as a negative control. Following incubation the products were analyzed by SDS-PAGE and autoradiography. In FIG. 2B^35S-labeled procaspase-9 (as described above) was incubated with bacterial lysates containing truncated Apaf-1 variants as indicated and then analyzed as above (2B upper panel). The bacterial lysates were analyzed by SDS-PAGE and immunoblotted with an Apaf-1 antibody which recognizes the N-terminus of Apaf-1 (lanes 2-6) and an anti T7-tag antibody (lanes 7-8) to confirm expression and equivalent concentration of the different Apaf-1 variants (2B lowerpanel). The molecular mass markers are indicated to the right of the lower panel.
^35S-labeled caspases were obtained by in vitro translation in the presence of ^35S-methionine using a coupled transcription/translation system in rabbit reticulocyte lysate using TNT Kit (Promega) according to the manufacturer's recommendations.
To determine the role of the WD-40 repeat in the mechanism of Apaf-1-induced processing of procaspase-9, truncated Apaf-1 (Apaf-530) lacking its WD-40 repeats (FIG. 1) was expressed and purified. To reconstitute a recombinant caspase-9 activation system, the truncated Apaf-530 was incubated with in vitro translated recombinant procaspase-9 in the presence or absence of cytochrome c and dATP. […] It was previously shown that mutation of CED-4 K165R which is required for nucleotide binding destroys its activity (Chinnaiyan et al., Nature 388:728-729, 1997; Jarnes et al., Curr. Biol. 7:246-252, 1997; Seshagiri and Miller, Curr. Biol. 7:455-460, 1997). […] Therefore, either binding of Apaf-1 to cytochrome c and dATP or deletion of the repeats could induce a conformational change enabling Apaf-1 to bind and process procaspase-9.
In FIG. 3, ^35S-labeled WT or mutant D330A, D315A or C287A mutants of procaspase-9 or prodomainless procaspase-9 (Δpro, residues 134-416) were incubated with buffer (lanes 1, 4, 7, 10, 13), purified Apaf-530 (lanes 2, 5, 8, 11, 14) or mock purified material (lanes, 3, 6, 9, 12, 15) and then analyzed by SDS-PAGE and autoradiography.

T7-tagged Bcl-xL = target: T2, T7-tagged Bcl-xL (Homo sapiens, UniProt Q07817); test: Co-immunoprecipitation of Flag-tagged Apaf-1 variants or procaspase-9 with T7-tagged Bcl-xL in 293 cells; format: binding; settings: anti-Flag immunoprecipitation, anti-T7 blot, 36 hours, FIG. 16
T2 construct: expressed in transfected cells; host or cells: 293 cells
T2 sequence (Q07817 whole entry): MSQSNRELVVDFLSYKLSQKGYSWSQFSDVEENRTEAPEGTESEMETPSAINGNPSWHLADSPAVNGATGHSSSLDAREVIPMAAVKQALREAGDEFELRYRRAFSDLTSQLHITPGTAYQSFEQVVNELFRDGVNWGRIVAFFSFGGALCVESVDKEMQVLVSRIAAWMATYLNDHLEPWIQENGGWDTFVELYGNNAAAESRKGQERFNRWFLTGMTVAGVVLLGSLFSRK
Experimental: In vivo interaction experiments between Apaf-1 variants and Bcl-xL were performed. To analyze the ability of Apaf-1 to interact with Bcl-xL, 293 cells were co-transfected with constructs encoding T7-tagged Bcl-xL and constructs encoding Flag-tagged Apaf-97 (FIG. 16, lane 1), Apaf-1 (FIG. 16, lane 2), Apaf-530 (FIG. 16, lane 3) Apaf-530ΔCARD (FIG. 16, lane 4), or procaspase-9 C287A (FIG. 16, lane 5). After 36 hours, extracts were prepared and immunoprecipitated with a monoclonal antibody to the Flag epitope. The immunoprecipitates (FIG. 16, upper panel) were analyzed by SDS-PAGE and immunoblotted with a horseradish peroxidase-conjugated T7 antibody. The corresponding cellular extracts were also analyzed by SDS-PAGE and immunoblotted with a horseradish peroxides-conjugated T7 antibody (FIG. 16, middle panel) or an anti-Flag antibody (FIG. 16, lower panel).

| Molecule | activity of the Apaf-1 variant in promoting activation of procaspase-9 (procaspase-9) | also measured |
| --- | --- | --- |
| B1 | inactive | – |
| B2 | – | less activity than Apaf-530 in promoting procaspase-9 processing (procaspase-9): ~90% |
| B3 | further reduced its activity | – |
| B4 | – | co-immunoprecipitation with Bcl-xL (T7-tagged Bcl-xL): capable of immunoprecipitating |
